Tests used:
[1] = target: 狂犬病毒G蛋白 (rabies virus G protein, RVG) (rabies virus (strain not stated))
狂犬病毒(CVS株) = assay: cell-based or functional assay
[2] = target: 狂犬疫苗 (rabies vaccine used as ELISA coating antigen); assay: ELISA, rabies vaccine coated on plate, HRP goat anti-human IgG

B1: 全人源的单克隆的抗狂犬病毒中和抗体TRN006 (antibody, V domains shown)
VH: QVQLQESGPGLVKPSETLSLTCTVSGGSISSTTSYWGWIRQPPGKGLEWIGSIYYSGSTYYNPSLKSRVTISVDTSKNQFSLKLRSVTAADTAVYFCARHSVTAAYFNYWGQGTLVSVSS
VL: DIQMTQSPSSVSASVGDRVTITCRASEGISSWLAWYQQKPGRAPKVLIHGASSLQSGVPSRFSGSGSGADFTLSISSLQPEDFATYYCQQANSFPYTFGQGTKLEIKR
With B1 the fold of MFI over negative control antibody [1] was 300 fold, the fold of MFI over standard serum [1] was 17 fold and the 保护效价 (RFFIT, Reed & Muench法) (狂犬病毒(CVS株)) was 3040 IU/ml. It also gave an antibody concentration at which binding is still seen [2] of 0.0024 µg/mL and a dilution fold at which binding is still seen [2] of 50000 fold.

— patent CN103910796A
